Legend:
U2OS TNS3KO cells [1] = test: vinculin-positive FAs on VN; type: cell-based, human; conditions: TNS3-WT vs TNS3-L702E; VN-coated, serum-free; n = 74 (WT) and 51 (L702E) cells
Description: (§1) Cells were fixed in 4% paraformaldehyde (PFA, Sigma-Aldrich), which had been prewarmed to 37°C for 15 min before being washed three times with PBS. For immunofluorescence staining, cells were permeabilized with 0.5% Triton X-100 (Sigma-Aldrich) at room temperature for 5 min before being washed three times with PBS. Blebbistatin (Tocris Bioscience) was diluted in dimethyl sulfoxide (Sigma-Aldrich) and used at a final concentration of 50 μM. […]
(§2) Analysis of cell adhesion sites, FN fibrils, and LLPS condensates was performed using FIJI/ImageJ (version 1.54f) software ([Schindelin et al., 2012]). […] Prior to adhesion quantification, the images were background-subtracted using a rolling ball algorithm, followed by thresholding of adhesion sites and Analyse Particles functions in FIJI/ImageJ to quantify adhesions. Adhesion sites with sizes between 0.4 and 10 μm^2 were counted, except for adhesions in blebbistatin-treated cells, which were counted with sizes between 0.2 and 4 μm^2. […]

TNS3KO cells = test: FN fibrils, rescue of TNS3KO cells; type: cell-based, human; conditions: vs TNS3-WT; IST9 antibody; 40 × 40 μm squares; n = 56 (WT) and 54 (L702E) cells
Description: as §1
To analyze the FN fibrils, the images were background-subtracted (rolling ball), before 40 × 40 μm square boxes were applied for particle analysis to count FN fibrils larger than 0.2 μm^2. The FN coverage was calculated by dividing the area covered by FN fibrils by the total area of the box (1,600 μm^2).

NIH3T3 cells [2] = test: tensin3 condensate formation, NIH3T3 cells; type: cell-based, mouse
Description: (§3) To establish a correlation between tensin3 expression and condensation formation, a maximum intensity Z-projection was performed on Z-stack images of NIH3T3 cells (step depth 0.2 μm). The integrated fluorescence intensity was measured by normalizing the mean pixel intensity of each cell to the average of all values in cells expressing mCh-TNS3. To measure the condensate coverage in NIH3T3 cells, the images were background-subtracted (rolling ball) and then thresholded. This was followed by the Analyse Particles function in FIJI/ImageJ to select round condensate structures (circularity 0.7–1.0) ([Bussi et al., 2023]; [Dumelie et al., 2024]) with a size larger than 0.1 μm^2. The same settings were applied to quantify the number of condensates in NIH3T3 and HFF cells.
The percentage of NIH3T3 cells transfected with mCh-TNS3 that form phase-separated condensates was quantified manually in images (610 × 499 μm) acquired with a 20× objective. To quantify the mean radius (R) of the condensates, the area covered by the condensates was divided by the number of condensates for each cell to obtain the mean size (A) of the condensates, followed by the formula of R = √(A/3.14).

U2OS TNS3KO cells [3] = test: adhesion stability under blebbistatin, U2OS TNS3KO cells; type: cell-based, human; conditions: blebbistatin 50 µM
Description: Cells were fixed in 4% paraformaldehyde (PFA, Sigma-Aldrich), which had been prewarmed to 37°C for 15 min before being washed three times with PBS. For immunofluorescence staining, cells were permeabilized with 0.5% Triton X-100 (Sigma-Aldrich) at room temperature for 5 min before being washed three times with PBS. Blebbistatin (Tocris Bioscience) was diluted in dimethyl sulfoxide (Sigma-Aldrich) and used at a final concentration of 50 μM. The following primary antibodies were diluted in 1% bovine serum albumin (BSA, Sigma-Aldrich): mouse anti-α5 integrin (SNAKA51, 1:100, NBP2-50146; Novus Biologicals), rat anti-β1 integrin (9EG7, 1:200; 553715; BD Biosciences), mouse anti-FN (IST-9, 1:100, ab6328; Abcam), rabbit anti-tensin3 (1:200, HPA055338; Atlas), mouse anti-EEA1 (1:500, 68065-1-IG; Proteintech), mouse anti-LAMP1 (1:200, ab320851; Abcam), mouse anti-paxillin (349, 1:400, mab3060; Sigma-Aldrich), rabbit anti-talin1 (1:200, 82856-4-RR; Proteintech), mouse anti-vinculin (hVin1, 1:500, V9264; Sigma-Aldrich), rabbit anti-KANK2 (1:100, HPA015643; Sigma-Aldrich), rabbit anti-kindlin2 (1:100, 11453-1-AP; Proteintech), rabbit anti-GIT1 (1:200, 26247-1-AP; Proteintech), mouse anti-phosphotyrosine (4G10, 1:200, 05-321X; Sigma-Aldrich), rabbit anti-G3BP1 (1:600, 13057-2-AP; Proteintech), rabbit anti-TDP43 (1:400, 10782-2-AP; Proteintech), and rabbit anti-GIGYF1 (1:400, ab121784; Abcam). […]
as §2

NIH3T3 cells [4] = test: condensates on soft vs stiff PDMS, NIH3T3 cells; type: cell-based, mouse; conditions: 1.5 kPa vs 28 kPa FN-coated PDMS, overnight
Description: Imaging dishes equipped with 40 µm-thick PDMS substrates (1.5 and 28 kPa) were purchased from ibidi. PDMS dishes were coated with 30 μg/ml FN for 1 h, followed by three washes with PBS. Dishes were incubated with DMEM for 10 min to equilibrate before cells were plated and incubated overnight at 37°C.
as §3

[5] = tested on: active β1 integrin, U2OS TNS3KO cells; test: β1 integrin-positive adhesions, U2OS TNS3KO cells; type: cell-based, human; conditions: vs TNS3-WT; FN-coated; 9EG7
Description: as §1, §2

B1: TNS3-L702E: tensin3 carrying the L702E point mutation that blocks the interaction with talin (protein, UniProt Q68CZ2 1-1445, looked up, variant L702E)
Tensin-3: MEEGHGLDLTYITERIIAVSFPAGCSEESYLHNLQEVTRMLKSKHGDNYLVLNLSEKRYDLTKLNPKIMDVGWPELHAPPLDKMCTICKAQESWLNSNLQHVVVIHCRGGKGRIGVVISSYMHFTNVSASADQALDRFAMKKFYDDKVSALMQPSQKRYVQFLSGLLSGSVKMNASPLFLHFVILHGTPNFDTGGVCRPFLKLYQAMQPVYTSGIYNVGPENPSRICIVIEPAQLLKGDVMVKCYHKKYRSATRDVIFRLQFHTGAVQGYGLVFGKEDLDNASKDDRFPDYGKVELVFSATPEKIQGSEHLYNDHGVIVDYNTTDPLIRWDSYENLSADGEVLHTQGPVDGSLYAKVRKKSSSDPGIPGGPQAIPATNSPDHSDHTLSVSSDSGHSTASARTDKTEERLAPGTRRGLSAQEKAELDQLLSGFGLEDPGSSLKEMTDARSKYSGTRHVVPAQVHVNGDAALKDRETDILDDEMPHHDLHSVDSLGTLSSSEGPQSAHLGPFTCHKSSQNSLLSDGFGSNVGEDPQGTLVPDLGLGMDGPYERERTFGSREPKQPQPLLRKPSVSAQMQAYGQSSYSTQTWVRQQQMVVAHQYSFAPDGEARLVSRCPADNPGLVQAQPRVPLTPTRGTSSRVAVQRGVGSGPHPPDTQQPSPSKAFKPRFPGDQVVNGAGPELSTGPSPGSPTLDIDQSIEQENRLILELDPTFEPIPTHMNALGSQANGSVSPDSVGGGLRASSRLPDTGEGPSRATGRQGSSAEQPLGGRLRKLSLGQYDNDAGGQLPFSKCAWGKAGVDYAPNLPPFPSPADVKETMTPGYPQDLDIIDGRILSSKESMCSTPAFPVSPETPYVKTALRHPPFSPPEPPLSSPASQHKGGREPRSCPETLTHAVGMSESPIGPKSTMLRADASSTPSFQQAFASSCTISSNGPGQRRESSSSAERQWVESSPKPMVSLLGSGRPTGSPLSAEFSGTRKDSPVLSCFPPSELQAPFHSHELSLAEPPDSLAPPSSQAFLGFGTAPVGSGLPPEEDLGALLANSHGASPTPSIPLTATGAADNGFLSHNFLTVAPGHSSHHSPGLQGQGVTLPGQPPLPEKKRASEGDRSLGSVSPSSSGFSSPHSGSTISIPFPNVLPDFSKASEAASPLPDSPGDKLVIVKFVQDTSKFWYKADISREQAIAMLKDKEPGSFIVRDSHSFRGAYGLAMKVATPPPSVLQLNKKAGDLANELVRHFLIECTPKGVRLKGCSNEPYFGSLTALVCQHSITPLALPCKLLIPERDPLEEIAESSPQTAANSAAELLKQGAACNVWYLNSVEMESLTGHQAIQKALSITLVQEPPPVSTVVHFKVSAQGITLTDNQRKLFFRRHYPVNSVIFCALDPQDRKWIKDGPSSKVFGFVARKQGSATDNVCHLFAEHDPEQPASAIVNFVSKVMIGSPKKV
modifications: mCherry or GFP tag
formation of vinculin-positive FA (U2OS TNS3KO cells [1]): no difference
fewer FN fibrils (TNS3KO cells): over 70%
Spearman's r, expression level vs condensate coverage (NIH3T3 cells [2]; n = 181 cells (WT), 168 cells (L702E)): 0.9013
fold increase in number of condensates (NIH3T3 cells [2]; vs TNS3-WT, condensates >0.1 μm^2, circularity 0.7–1, n = 68 (WT) and 100 (L702E) cells): 2.2 fold
condensate size (NIH3T3 cells [2]; vs TNS3-WT, mean radius): larger
subcellular localization of construct under blebbistatin (U2OS TNS3KO cells [3]): almost exclusively found in the LLPS condensates in the cytoplasm
condensates on soft vs stiff substrate (NIH3T3 cells [4]): no difference in condensate formation on soft versus stiff substrates
reduction of adhesion-promoting effect (β1 integrin-positive adhesions) [5]: 57%

From publication PMC12637021, “Talin–tensin3 interactions regulate fibrillar adhesion formation and tensin3 phase separation” (The Journal of Cell Biology, 2025)
